The record followed here is the Human Domainome abundance scans (Beltran et al. 2025).

± gives the uncertainty stated by the source.

The chains are these.
B1: Protein piccolo, residues 1058 to 1114; numbered along this chain, Q9Y6V0 (parent)
chain: TCPLCKTELNIGSKDPPNFNTCTECKNQVCNLCGFNPTPHLTEIQEWLCLNCQTQRA
B2: CD2-associated protein, residues 271 to 331; numbered along this chain, Q9Y5K6 (parent)
chain: KEYCRTLFAYEGTNEDELTFKEGEIIHLISKETGEAGWWRGELNGKEGVFPDNFAVQINEL

In the first series the parent is B1. Briefly: abundance fitness (aPCA) (normalised: wild type 0, dead -1); higher = more abundant; growth selection in yeast, the domain comes from the species named. Particulars: Homo sapiens.
Consider TCPLCKTELNIGSKDPPNFNTCTECKNQVCNLCGFNPTPHLTEIQEWLCLNCQVQRA [T54V], for which the abundance fitness is -0.198 ± 0.14.

Regarding TCPLCKTELNIGSKDPPNFNTCTECKNQVCNLCGFNPTPHLTEIQEWLCLNCQNQRA [T54N], the abundance fitness came out at 0.296 ± 0.32.

Regarding TCPLCKTELNIGSKDPPNFNTCTECKNQVCNLCGFNPTPHLTEIQEWLCLNCQKQRA [T54K], the abundance fitness turned out to be 0.196 ± 0.12.

TCPLCKTELNIGSKDPPNFNTCTECKNQVCNLCGFNPTPHLTEIQEWLCLNCQCQRA [T54C]: the abundance fitness is -0.182 ± 0.24.

Take TCPLCKTELNIGSKDPPNFNTCTECKNQVCNLCGFNPTPHLTEIQEWLCLVCQTQRA [N51V]: the abundance fitness was -0.326 ± 0.11.

Consider TCPLCKTELNIGSKDPPNFNTCTECKNQVCNLCGFNPTPHLTEIQEWLCLSCQTQRA [N51S], for which the abundance fitness was -0.247 ± 0.12.

The next series covers variants of B2. The series is described as above. Particulars: Homo sapiens.
Consider VEYCRTLFAYEGTNEDELTFKEGEIIHLISKETGEAGWWRGELNGKEGVFPDNFAVQINEL [K1V], for which the abundance fitness is -0.332 ± 0.088.

KEYCRTLFAYEGTNEDELTFKEGEIIHLISKETGEAGWWRGELNGKEGVFPRNFAVQINEL [D52R]: the abundance fitness was -0.043 ± 0.076.

In the case of KEYCRTLFAYEGTNEDELTFKEGEIIHLISKETGEAGWWRGELNGKEGVFPYNFAVQINEL [D52Y], the abundance fitness was -0.085 ± 0.17.

KEYCRTLFAYEGTNEDELRFKEGEIIHLISKETGEAGWWRGELNGKEGVFPDNFAVQINEL [T19R]: the abundance fitness is -0.283 ± 0.07.

With KEYCRTLFAYEGTNEDELTFKEGEIIHLISKETGEAGWWRGELNGKEGSFPDNFAVQINEL [V49S], the abundance fitness is -0.297 ± 0.06.

As for KEYCRTLFAYEGTNEDELTFKEGEIIHLISKETGEAGWWRGELNGKEGMFPDNFAVQINEL [V49M], the abundance fitness is -0.082 ± 0.067.

KEYCRTLFAYEGTNEDEGTFKEGEIIHLISKETGEAGWWRGELNGKEGVFPDNFAVQINEL [L18G]: the abundance fitness is -0.889 ± 0.12.

For KEYCRTLFAYEGTNEDELTFKEGEIIHLISKETGEAGWWRGELNQKEGVFPDNFAVQINEL [G45Q], the abundance fitness is -0.612 ± 0.1.

On to KEYCRTLFAYEGTNEDELTFKEGEIIHLISKETGEAGWWRGELNGKEGVFPDNFKVQINEL [A55K], for which the abundance fitness was -0.92 ± 0.17.

Regarding KEYCRTLFAYHGTNEDELTFKEGEIIHLISKETGEAGWWRGELNGKEGVFPDNFAVQINEL [E11H], the abundance fitness was -0.151 ± 0.46.

In the case of KMYCRTLFAYEGTNEDELTFKEGEIIHLISKETGEAGWWRGELNGKEGVFPDNFAVQINEL [E2M], the abundance fitness worked out at 0.073 ± 0.15.

For the variant KEYCRTLFAYEGTNEDELTFKEGEIIHLINKETGEAGWWRGELNGKEGVFPDNFAVQINEL [S30N], the abundance fitness is -0.152 ± 0.15.

KEYFRTLFAYEGTNEDELTFKEGEIIHLISKETGEAGWWRGELNGKEGVFPDNFAVQINEL [C4F]: the abundance fitness is -0.007 ± 0.11.

Regarding KEYCRTLKAYEGTNEDELTFKEGEIIHLISKETGEAGWWRGELNGKEGVFPDNFAVQINEL [F8K], the abundance fitness is 0.128 ± 0.06.

KEYCRTLFAYEGTNERELTFKEGEIIHLISKETGEAGWWRGELNGKEGVFPDNFAVQINEL [D16R]: the abundance fitness was -0.062 ± 0.044.

Consider KEYCRTLFAYEGTNEDELTFKEGEIIHLISKETGEAGWWRCELNGKEGVFPDNFAVQINEL [G41C], for which the abundance fitness was -1.07 ± 0.35.

Take KEYCRTLFAYEGTNEDELTFAEGEIIHLISKETGEAGWWRGELNGKEGVFPDNFAVQINEL [K21A]: the abundance fitness is -0.023 ± 0.057.

For KEYCRTLFAYEGTNEDELTFKEGEIIHLISKETGEAHWWRGELNGKEGVFPDNFAVQINEL [G37H], the abundance fitness is -0.306 ± 0.17.

For KEYCRTLFAYEGTNEDELTFKEGEIIHLISKETGEAGWWRGELNGKEGVFPDNFAVQIWEL [N59W], the abundance fitness was -0.367 ± 0.13.

Turning to KEYCRTLFAYEGTNEDELTFKEGEIIHLISKETGEAGWWRGELNGKEGVFPDNFAVQIKEL [N59K], the abundance fitness is -0.274 ± 0.13.

With KEYCRTLFAYEGTNEDELTFKEGEIIHLISKETGEAGWWRGELNGKELVFPDNFAVQINEL [G48L], the abundance fitness is -0.753 ± 0.061.

For KEYCGTLFAYEGTNEDELTFKEGEIIHLISKETGEAGWWRGELNGKEGVFPDNFAVQINEL [R5G], the abundance fitness was -0.868 ± 0.14.

Turning to KEYCRTLFAYEGANEDELTFKEGEIIHLISKETGEAGWWRGELNGKEGVFPDNFAVQINEL [T13A], the abundance fitness was 0.066 ± 0.063.

With KEYCRTLFAYEGENEDELTFKEGEIIHLISKETGEAGWWRGELNGKEGVFPDNFAVQINEL [T13E], the abundance fitness was -0.042 ± 0.062.

For the variant KEYCRTLFAYEGTNEDELTFKEGEIIHLISKETGEAGWWRGELNGVEGVFPDNFAVQINEL [K46V], the abundance fitness is -0.033 ± 0.068.

For the variant KEYCRTLFAYEGTNEDELTFKEGEIIHLISKETGEAGWWRGELNGQEGVFPDNFAVQINEL [K46Q], the abundance fitness is -0.265 ± 0.086.

For KENCRTLFAYEGTNEDELTFKEGEIIHLISKETGEAGWWRGELNGKEGVFPDNFAVQINEL [Y3N], the abundance fitness is -0.292 ± 0.12.

With KEECRTLFAYEGTNEDELTFKEGEIIHLISKETGEAGWWRGELNGKEGVFPDNFAVQINEL [Y3E], the abundance fitness is -0.567 ± 0.17.

KEYCRTLFAYEGTNEDELTFKEGEIIHYISKETGEAGWWRGELNGKEGVFPDNFAVQINEL [L28Y]: the abundance fitness is -0.702 ± 0.16.

Turning to KEYCRTGFAYEGTNEDELTFKEGEIIHLISKETGEAGWWRGELNGKEGVFPDNFAVQINEL [L7G], the abundance fitness is -0.57 ± 0.11.

KEYCRTCFAYEGTNEDELTFKEGEIIHLISKETGEAGWWRGELNGKEGVFPDNFAVQINEL [L7C]: the abundance fitness was -0.336 ± 0.098.

On to KEYCRTLFAYEGTNEDELTFKMGEIIHLISKETGEAGWWRGELNGKEGVFPDNFAVQINEL [E22M], for which the abundance fitness was -0.485 ± 0.087.

In the case of KEYCRTLFAYEGTNEDELTFKEGEIIHLISKETGEAGWWRGDLNGKEGVFPDNFAVQINEL [E42D], the abundance fitness is -0.298 ± 0.13.

Take KEYCRTLFAYEGTNEDELTFKEGEIIHLISKETGEAGWWRGELNGKEGVFPDNVAVQINEL [F54V]: the abundance fitness was determined as 0.011 ± 0.053.

On to KEYCRTLFCYEGTNEDELTFKEGEIIHLISKETGEAGWWRGELNGKEGVFPDNFAVQINEL [A9C], for which the abundance fitness was -0.129 ± 0.078.

For the variant KEYCRTLFSYEGTNEDELTFKEGEIIHLISKETGEAGWWRGELNGKEGVFPDNFAVQINEL [A9S], the abundance fitness worked out at 0.029 ± 0.052.

KEYCRTLFQYEGTNEDELTFKEGEIIHLISKETGEAGWWRGELNGKEGVFPDNFAVQINEL [A9Q]: the abundance fitness was -0.096 ± 0.063.

On to KEYCRTLFAYEGTWEDELTFKEGEIIHLISKETGEAGWWRGELNGKEGVFPDNFAVQINEL [N14W], for which the abundance fitness is -0.239 ± 0.11.

On to KEYCRTLFAYEGTNEDELTFKEGEIIHLISKETGEAGWWRGELNGKEGVFPDNFAVQDNEL [I58D], for which the abundance fitness turned out to be 0 ± 0.14.
